# Molecular target: T1, FLAG-hPSMA, extracellular domain protein of hPSMA with a FLAG-tag at the N-terminus (human, UniProt Q04609 44-750)
# T1 construct: also called FLAG-PSMA; soluble hPSMA antigen
# Assay: phage ELISA, scFv phage clone on immobilized FLAG-PSMA
# Protocol: The concentrated phage was monocloned and clones having the affinity to FLAG-PSMA were selected by ELISA. In ELISA, MAXISORP STARTUBE (manufactured by NUNC) in which the FLAG-PSMA of Example 5 described below was immobilized thereon, and a site not bound by FLAG-PSMA was blocked by using SuperBlock Blockig Buffer (manufactured by Thermo Fisher Scientific Inc.) was used.
# Each phage clone was added to each well and allowed to react at room temperature for 30 minutes, and then each well was washed three times with PBS containing 0.1% Tween 20 (hereinafter referred to as PBS-T). Subsequently, a solution in which horseradish peroxidase-labeled anti-M13 antibody (manufactured by GE Healthcare) was diluted 5000 times with PBS-T containing 10% Block Ace (manufactured by Dainippon Pharma Co., Ltd.) was added to each well by 50 μL and incubated at room temperature for 30 minutes.
# T1 sequence (Q04609 other isoform, or with tags, fused parts or gaps): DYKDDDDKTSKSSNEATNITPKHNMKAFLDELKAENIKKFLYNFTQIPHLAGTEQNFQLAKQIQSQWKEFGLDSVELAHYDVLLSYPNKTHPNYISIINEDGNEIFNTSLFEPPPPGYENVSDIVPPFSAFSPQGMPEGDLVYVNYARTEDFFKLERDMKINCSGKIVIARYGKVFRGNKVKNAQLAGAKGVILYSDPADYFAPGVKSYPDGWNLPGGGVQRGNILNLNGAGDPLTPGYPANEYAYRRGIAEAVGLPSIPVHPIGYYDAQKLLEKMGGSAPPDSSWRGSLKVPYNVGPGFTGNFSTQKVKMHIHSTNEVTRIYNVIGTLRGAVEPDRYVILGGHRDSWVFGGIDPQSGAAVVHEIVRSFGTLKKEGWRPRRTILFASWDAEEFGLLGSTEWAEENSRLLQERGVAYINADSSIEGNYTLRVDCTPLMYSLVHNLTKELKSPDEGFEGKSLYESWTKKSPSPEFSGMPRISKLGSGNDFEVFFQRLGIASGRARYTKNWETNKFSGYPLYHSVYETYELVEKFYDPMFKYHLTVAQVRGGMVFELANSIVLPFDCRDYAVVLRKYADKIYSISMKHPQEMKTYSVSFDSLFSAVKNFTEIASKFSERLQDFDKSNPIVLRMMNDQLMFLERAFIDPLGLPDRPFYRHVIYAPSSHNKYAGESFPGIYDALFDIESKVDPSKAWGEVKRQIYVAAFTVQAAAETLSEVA
row,Binder,binding result
1,"PI134 phage clone (scFv displayed on M13 phage) (scFv, V domains shown, Tested as an scFv on M13 phage (phagemid pCANTAB 5E)) VH: QVQLVQSGAEVKKPGASVKVSCKASGYTFTTYDINWVRQATGQGLEWMGWMNPNNGYTGYAQKFQGRVTMTRNTSISTAYMELSSLRSEDTAVYYCARTNWVYWYFDLWGRGTLVTVSS VL: EIVLTQSPATLSLSPGERATLSCRASQSVSSFLAWYQQKPGQAPRLLIYDASNRATGIPARFSGSGSGTDFTLTISSLEPEDFAVYYCQQRSNWPLTFGPGTKVDIKR",binds
2,"PI105 phage clone (scFv displayed on M13 phage) (scFv, V domains shown, Tested as an scFv on M13 phage (phagemid pCANTAB 5E); not shown: scFv linker, domain order, tag and M13 coat-protein fusion of phagemid pCANTAB 5E; copies: 1 + 1) VH: EVQLVQSGAEVKKPGASVKVSCKASGYTFTTYDINWVRQATGQGLEWLGWMNPNNGYTGYAQKFQGRVTMTRNTSIGTAYMELNSLRSEDTAVYYCARTNWVYWYFDLWGRGTLVTVSS VL: EIVLTQSPATLSLSPGERATLSCRASQSVSSFLAWYQQKPGQAPRLLIYDASNRATGIPARFSGSGSGTDFTLTISSLEPEDFAVYYCQQRSNWPLTFGPGTKVDIK",binds
3,"PN170 phage clone (scFv displayed on M13 phage) (scFv, V domains shown, Tested as an scFv on M13 phage (phagemid pCANTAB 5E)) VH: EVQLVQSGAEVKKPGASVKVSCKASGYTLTSYDINWVRQATGQGLEWMGWMNPNSGYTGYAQKFQDRVTMTRNTAINTAYMELSSLRSEDTAVYYCAREAGYDGIWYFDLWGRGTLVTVSS VL: EIVLTQSPATLSLSPGERATLSCRASQSVSSFLAWYQQKPGQAPRLLIYDASNRATGIPARFSGSGSGTDFTLTISSLEPEDFAVYYCQQRSNWPLTFGPGTKVDIKR",binds
4,"PI143 phage clone (scFv displayed on M13 phage) (scFv, V domains shown, Tested as an scFv on M13 phage (phagemid pCANTAB 5E); also called P1143) VH: QVQLVQSGAEVKKPGASVKVSCKASGYTFTTYDINWVRQATGQGLEWMGWMNPNNGYTGYAQKFQGRVTMTRNTSISTAYMELSSLRSEDTAVYYCARTNWVYWYFDLWGRGTTVTVSS VL: EIVLTQSPATLSLSPGERATLSCRASQSVSSFLAWYQQKPGQAPRLLIYDASNRATGIPARFSGSGSGTDFTLTISSLEPEDFAVYYCQQRSNWPLTFGPGTKVDIKR",binds
5,"PI118 phage clone (scFv displayed on M13 phage) (scFv, V domains shown, Tested as an scFv on M13 phage (phagemid pCANTAB 5E)) VH: QVQLVQSGAEVKKPGASVKVSCKASGYNLTTYDINWVRQATGQGLEWMGWMNPNSGYTGYAQKFQGRVTMTRNTSIDTAYMELSNLRSEDTAVYYCARTNWVYWYFDLWGRGTLVTVSS VL: EIVLTQSPATLSLSPGERATLSCRASQSVSSFLAWYQQKPGQAPRLLIYDASNRATGIPARFSGSGSGTDFTLTISSLEPEDFAVYYCQQRSNWPLTFGPGTKVDIKR",binds
6,"PL223 phage clone (scFv displayed on M13 phage) (scFv, V domains shown, Tested as an scFv on M13 phage (phagemid pCANTAB 5E)) VH: EVQLVQSGAEVKKPGASVKVSCKASGYTFTTYDINWVRQATGQGLEWMGWMNPNNGYTGYAQKFQGRVTMTRNTSISTAYMELSSLRSEDTAVYYCARTNWVYWYFDLWGRGTMVTVSS VL: EIVLTQSPATLSLSPGERATLSCRASQSVSSFLAWYQQKPGQAPRLLIYDASNRATGIPARFSGSGSGTDFTLTISSLEPEDFAVYYCQQRSNWPLTFGPGTKVDIKR",binds
7,"PI108 phage clone (scFv displayed on M13 phage) (scFv, V domains shown, Tested as an scFv on M13 phage (phagemid pCANTAB 5E)) VH: QVQLVQSGAEVKKPGASVKVSCKASGYTFTTYDINWVRQATGQGLEWMGWMNPNNGYTGYAQKFQGRVTMTRNTSISTAYMELTSLRSEDTAVYYCARTNWVYWYFDLWGRGTLVTVSS VL: EIVLTQSPATLSLSPGERATLSCRASQSVSSFLAWYQQKPGQAPRLLIYDASNRATGIPARFSGSGSGTDFTLTISSLEPEDFAVYYCQQRSNWPLTFGPGTKVDIKR",binds
8,"PI101 phage clone (scFv displayed on M13 phage) (scFv, V domains shown, Tested as an scFv on M13 phage (phagemid pCANTAB 5E)) VH: EVQLVQSGAEVKKPGASVKVSCKASGYNLATYDINWVRQATGQGLEWMGWMNPNSGYTGYAQKFQGRVTMTRDTSINTAYMELSSLRSEDTAVYYCARTNWVYWYFDLWGRGTLVTVSS VL: EIVLTQSPATLSLSPGERATLSCRASQSVSSFLAWYQQKPGQAPRLLIYDASNRATGIPARFSGSGSGTDFTLTISSLEPEDFAVYYCQQRSNWPLTFGPGTKVDIKR",binds
9,"PI127 phage clone (scFv displayed on M13 phage) (scFv, V domains shown, Tested as an scFv on M13 phage (phagemid pCANTAB 5E)) VH: QVQLVQSGAEVKKPGASVKVSCKASGYTFTTYDINWVRQATGQGLEWLGWMNPNNGYTGYAQKFQGRVTMTRNTSIGTAYMELNSLRSEDTAVYYCARTNWVYWYFDLWGRGTLVTVSS VL: EIVLTQSPATLSLSPGERATLSCRASQSVSSFLAWYQQKPGQAPRLLIYDASNRATGIPARFSGSGSGTDFTLTISSLEPEDFAVYYCQQRSNWPLTFGPGTKVDIKR",binds
10,"PN7 phage clone (scFv displayed on M13 phage) (scFv, V domains shown, Tested as an scFv on M13 phage (phagemid pCANTAB 5E)) VH: EVQLVQSGAEVKKPGASVKVSCKASGYTFTTYDINWVRQATGQGLEWMGWMNPNSGYTGYAQKFQGRVTMTRDTSISTAYMELSSLRSEDTAVYYCARTNWESWYFDLWGRGTLVTVSS VL: EIVLTQSPATLSLSPGERATLSCRASQSVSSFLAWYQQKPGQAPRLLIYDASNRATGIPARFSGSGSGTDFTLTISSLEPEDFAVYYCQQRSNWPLTFGPGTKVDIKR",binds

# — US20180016346A1 (Kyowa Kirin, published 2018)
